The target of the test is T1, Homothorax (Hth) (Drosophila, UniProt O46339 1-487).
T1 sequence (looked up): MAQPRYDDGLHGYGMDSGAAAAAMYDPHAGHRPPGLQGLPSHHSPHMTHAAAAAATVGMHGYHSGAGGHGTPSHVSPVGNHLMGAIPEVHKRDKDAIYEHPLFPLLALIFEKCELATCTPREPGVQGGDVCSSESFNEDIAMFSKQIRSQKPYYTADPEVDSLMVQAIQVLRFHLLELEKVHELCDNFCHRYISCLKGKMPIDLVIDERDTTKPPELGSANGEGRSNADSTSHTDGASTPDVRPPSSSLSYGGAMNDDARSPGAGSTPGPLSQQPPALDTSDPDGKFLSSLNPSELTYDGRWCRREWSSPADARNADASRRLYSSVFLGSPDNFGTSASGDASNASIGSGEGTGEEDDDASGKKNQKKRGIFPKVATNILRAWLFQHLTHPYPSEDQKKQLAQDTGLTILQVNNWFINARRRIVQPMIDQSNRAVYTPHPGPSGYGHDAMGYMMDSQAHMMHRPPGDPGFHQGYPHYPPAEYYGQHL
Kind of test: native gel or EMSA.

Experimental findings from paper PMC2610489 (Developmental cell, 2008) are described below.

B1: Extradenticle (Exd) (natural protein, Drosophila, UniProt P40427 1-376, looked up)
chain: MEDPNRMLAHTGGMMAPQGYGLSGQDDGQNAGSENEVRKQKDIGEILQQIMSISEQSLDEAQARKHTLNCHRMKPALFSVLCEIKEKTVLSIRNTQEEEPPDPQLMRLDNMLIAEGVAGPEKGGGGAAAASAAAASQGGSLSIDGADNAIEHSDYRAKLAQIRQIYHQELEKYEQACNEFTTHVMNLLREQSRTRPITPKEIERMVQIIHKKFSSIQMQLKQSTCEAVMILRSRFLDARRKRRNFSKQASEILNEYFYSHLSNPYPSEEAKEELARKCGITVSQVSNWFGNKRIRYKKNIGKAQEEANLYAAKKAAGASPYSMAGPPSGTTTPMMSPAPPQDSMGYPMGSGGYDQQQPYDNSMGGYDPNLHQDLSP
For the molecule B1, the binding result was “binds”.
